The target of test [1] is TRAK1/mScarlet fusion protein (wild type) (UniProt Q9UPV9). Put plainly: co-IP; FLAG purification of Miro1/FP/FLAG/I3-01 synthetic cargo from hTERT RPE-1 cell lines co-expressing TRAK/mScarlet variants; immunoblot of the associated motor-adaptor components (kinesin, dynein, dynactin); also done after kinesin RNAi (fig. S4E).
Another test has as its target T1, kinesin-1, P33176.
T1 chain: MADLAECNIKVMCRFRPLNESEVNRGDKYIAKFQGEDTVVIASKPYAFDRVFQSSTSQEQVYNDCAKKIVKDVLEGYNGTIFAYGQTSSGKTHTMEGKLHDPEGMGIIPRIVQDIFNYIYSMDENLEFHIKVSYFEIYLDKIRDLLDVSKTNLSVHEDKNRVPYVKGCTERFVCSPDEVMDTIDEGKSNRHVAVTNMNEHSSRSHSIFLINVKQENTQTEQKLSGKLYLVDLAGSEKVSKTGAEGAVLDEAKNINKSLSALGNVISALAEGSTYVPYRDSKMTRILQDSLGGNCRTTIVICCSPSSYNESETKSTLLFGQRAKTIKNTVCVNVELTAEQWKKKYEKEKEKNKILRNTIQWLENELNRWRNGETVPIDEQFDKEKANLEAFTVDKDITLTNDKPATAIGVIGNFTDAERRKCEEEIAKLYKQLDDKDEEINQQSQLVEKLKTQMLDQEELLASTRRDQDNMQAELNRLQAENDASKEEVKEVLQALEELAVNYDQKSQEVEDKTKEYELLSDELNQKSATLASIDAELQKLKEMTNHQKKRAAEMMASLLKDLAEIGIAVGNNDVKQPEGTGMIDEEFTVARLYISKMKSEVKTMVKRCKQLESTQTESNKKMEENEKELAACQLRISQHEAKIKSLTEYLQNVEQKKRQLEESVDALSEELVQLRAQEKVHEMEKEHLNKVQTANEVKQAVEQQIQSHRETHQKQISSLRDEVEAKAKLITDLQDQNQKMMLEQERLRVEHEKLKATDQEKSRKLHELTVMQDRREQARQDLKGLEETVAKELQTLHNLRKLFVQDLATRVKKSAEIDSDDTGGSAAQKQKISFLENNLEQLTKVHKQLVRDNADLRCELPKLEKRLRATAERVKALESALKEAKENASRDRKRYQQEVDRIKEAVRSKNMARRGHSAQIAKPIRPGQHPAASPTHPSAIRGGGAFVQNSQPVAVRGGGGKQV
Put plainly: FLAG immunoprecipitation of synthetic cargo, immunoblot quantification (anti-KIF5B). Conditions: chain shown with the change; IP: flag; hTERT RPE-1 cells; n=4; parent: est. 1.0; read off a plot.

“kinesin-1 (from UniProt P33176 1-963) (natural protein)”: the fold enrichment versus TRAK2-driven synthetic cargo in test [1] is 20 fold.

B1: TRAK2/mScarlet fusion protein (wild type), O60296 F92A; M95A (protein)
chain: MSQSQNAIFTSPTGEENLMNSNHRDSESITDVCSNEDLPEVELVSLLEEQLPQYRLKVDTLFLYENQDWTQSPHQRQHASDALSPVLAEETARYAILGTDRVEQMTKTYNDIDMVTHLLAERDRDLELAARIGQALLKRNHVLSEQNESLEEQLGQAFDQVNQLQHELCKKDELLRIVSIASEESETDSSCSTPLRFNESFSLSQGLLQLEMLQEKLKELEEENMALRSKACHIKTETVTYEEKEQQLVSDCVKELRETNAQMSRMTEELSGKSDELIRYQEELSSLLSQIVDLQHKLKEHVIEKEELKLHLQASKDAQRQLTMELHELQDRNMECLGMLHESQEEIKELRSRSGPTAHLYFSQSYGAFTGESLAAEIEGTMRKKLSLDEESSLFKQKAQQKRVFDTVRIANDTRGRSISFPALLPIPGSNRSSVIMTAKPFESGLQQTEDKSLLNQGSSSEEVAGSSQKMGQPGPSGDSDLATALHRLSLRRQNYLSEKQFFAEEWQRKIQVLADQKEGVSGCVTPTESLASLCTTQSEITDLSSASCLRGFMPEKLQIVKPLEGSQTLYHWQQLAQPNLGTILDPRPGVITKGFTQLPGDAIYHISDLEEDEEEGITFQVQQPLEVEEKLSTSKPVTGIFLPPITSAGGPVTVATANPGKCLSCTNSTFTFTTCRILHPSDITQVTPSSGFPSLSCGSSGSSSSNTAVNSPALSYRLSIGESITNRRDSTTTFSSTMSLAKLLQERGISAKVYHSPISENPLQPLPKSLAIPSTPPNSPSHSPCPSPLPFEPRVHLSENFLASRPAETFLQEMYGLRPSRNPPDVGQLKMNLVDRLKRLGIARVVKNPGAQENGRCQEAEIGPQKPDSAVYLNSGSSLLGGLRRNQSLPVIMGSFAAPVCTSSPKMGVLKED
B1: the ratio to parent with kinesin-1, P33176 was 0.46.

B2: TRAK1/mScarlet fusion protein (wild type), Q9UPV9 L92A; F95A (protein)
chain: MALVFQFGQPVRAQPLPGLCHGKLIRTNACDVCNSTDLPEVEIISLLEEQLPHYKLRADTIYGYDHDDWLHTPLISPDANIDLTTEQIEETAKYALLCAERVGQMTKTYNDIDAVTRLLEEKERDLELAARIGQSLLKKNKTLTERNELLEEQVEHIREEVSQLRHELSMKDELLQFYTSAAEESEPESVCSTPLKRNESSSSVQNYFHLDSLQKKLKDLEEENVVLRSEASQLKTETITYEEKEQQLVNDCVKELRDANVQIASISEELAKKTEDAARQQEEITHLLSQIVDLQKKAKACAVENEELVQHLGAAKDAQRQLTAELRELEDKYAECMEMLHEAQEELKNLRNKTMPNTTSRRYHSLGLFPMDSLAAEIEGTMRKELQLEEAESPDITHQKRVFETVRNINQVVKQRSLTPSPMNIPGSNQSSAMNSLLSSCVSTPRSSFYGSDIGNVVLDNKTNSIILETEAADLGNDERSKKPGTPGTPGSHDLETALRRLSLRRENYLSERRFFEEEQERKLQELAEKGELRSGSLTPTESIMSLGTHSRFSEFTGFSGMSFSSRSYLPEKLQIVKPLEGSATLHHWQQLAQPHLGGILDPRPGVVTKGFRTLDVDLDEVYCLNDFEEDDTGDHISLPRLATSTPVQHPETSAHHPGKCMSQTNSTFTFTTCRILHPSDELTRVTPSLNSAPTPACGSTSHLKSTPVATPCTPRRLSLAESFTNTRESTTTMSTSLGLVWLLKERGISAAVYDPQSWDRAGRGSLLHSYTPKMAVIPSTPPNSPMQTPTSSPPSFEFKCTSPPYDNFLASKPASSILREVREKNVRSSESQTDVSVSNLNLVDKVRRFGVAKVVNSGRAHVPTLTEEQGPLLCGPPGPAPALVPRGLVPEGLPLRCPTVTSAIGGLQLNSGIRRNRSFPTMVGSSMQMKAPVTLTSGILMGAKLSKQTSLR
Turning to B2, in the test with kinesin-1, P33176, the ratio to parent was determined as 0.02.
